Assay results as given in US20230406951A1 (Pfizer, published 2023).
Where a chain is given by its changes, count along the chain named. Names and notes keep the numbering of the source. Values joined by “and” are separate entries in the source; they are usually repeats but may differ in a detail not shown here. Equal entries are not always repeated.

Columns and labels:
cynomolgus monkey TNFR2 [1] = biological target: T1, cynomolgus monkey TNFR2 (cynomolgus monkey, UniProt P20333 23-461 (human entry)); assay: cell-based or functional assay
T1 chain: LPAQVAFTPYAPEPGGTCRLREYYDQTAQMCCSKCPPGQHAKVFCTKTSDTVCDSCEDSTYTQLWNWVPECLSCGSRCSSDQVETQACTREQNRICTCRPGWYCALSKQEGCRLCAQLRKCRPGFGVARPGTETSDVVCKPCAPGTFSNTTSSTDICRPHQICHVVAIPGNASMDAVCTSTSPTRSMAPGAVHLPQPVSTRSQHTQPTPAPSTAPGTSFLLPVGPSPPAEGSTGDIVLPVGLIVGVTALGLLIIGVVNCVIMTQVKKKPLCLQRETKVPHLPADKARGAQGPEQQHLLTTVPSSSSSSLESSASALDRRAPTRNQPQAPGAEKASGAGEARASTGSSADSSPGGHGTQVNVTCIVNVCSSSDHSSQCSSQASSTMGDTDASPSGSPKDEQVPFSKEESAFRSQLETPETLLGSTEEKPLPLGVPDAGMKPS

human TNFR2 [2] = biological target: T2, human TNFR2 (human, UniProt P20333 23-461); assay: cell-based or functional assay
T2 sequence: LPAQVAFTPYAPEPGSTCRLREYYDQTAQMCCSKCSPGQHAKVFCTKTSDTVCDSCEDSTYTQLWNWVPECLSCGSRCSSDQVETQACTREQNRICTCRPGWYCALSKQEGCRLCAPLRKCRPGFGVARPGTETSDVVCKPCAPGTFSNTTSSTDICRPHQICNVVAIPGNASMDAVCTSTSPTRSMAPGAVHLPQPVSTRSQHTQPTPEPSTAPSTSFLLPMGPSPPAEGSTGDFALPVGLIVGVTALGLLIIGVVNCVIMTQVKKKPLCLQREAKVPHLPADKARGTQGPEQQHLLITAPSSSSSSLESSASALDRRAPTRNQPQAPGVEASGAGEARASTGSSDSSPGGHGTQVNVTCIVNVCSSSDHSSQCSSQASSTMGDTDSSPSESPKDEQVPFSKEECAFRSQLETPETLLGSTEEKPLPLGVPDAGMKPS

human TNFR2 [3] = biological target: T2, human TNFR2; assay: binding to human TNFR2 CHO cells
human TNFR2 [4] = biological target: T2, human TNFR2; assay: cell-based or functional assay; remark: listed apart in the source
biotinylated cyno TNFR2 [5] = biological target: T3, biotinylated cyno TNFR2 (cynomolgus monkey, UniProt P20333 23-257 (human entry), limits assumed, biotinylated); assay: SPR (BIAcore), biotinylated TNFR2 captured on streptavidin chip, antibody as analyte (apparent affinity)
T3 construct: Soluble biotinylated protein captured on a streptavidin chip for SPR; also called CyTNFR2
T3 chain: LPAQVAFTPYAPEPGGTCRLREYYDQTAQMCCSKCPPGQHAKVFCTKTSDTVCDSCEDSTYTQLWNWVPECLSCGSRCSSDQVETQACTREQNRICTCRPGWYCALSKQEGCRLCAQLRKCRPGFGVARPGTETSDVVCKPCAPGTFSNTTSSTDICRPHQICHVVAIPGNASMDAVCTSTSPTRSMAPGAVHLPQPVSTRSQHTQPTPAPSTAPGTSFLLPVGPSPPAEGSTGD
Procedure: (§1) Increased avidity was confirmed by Surface Plasmon Resonance (SPR) using a BIAcore. Briefly, biotinylated human- or cyno-TNFR2 was captured on the surface of a streptavidin chip for 60 seconds at a flow rate of […]. […] The dissociation phase was then initiated with running buffer (HBS-EP+) injected for 600 seconds at […]. Data were analyzed using the Biacore Evaluation Software.

biotinylated human TNFR2 [6] = biological target: T4, biotinylated human TNFR2 (human, UniProt P20333 23-257, biotinylated); assay: as above
T4 construct: Soluble biotinylated protein captured on a streptavidin chip for SPR; also called HuTNFR2
T4 sequence: T3 chain with G16S, P36S, Q117P, H164N, A210E, G216S, V223M
Procedure: as §1

cynomolgus monkey TNFR2 [7] = biological target: T1, cynomolgus monkey TNFR2; assay: cell-based or functional assay
human TNFR2 [8] = biological target: T2, human TNFR2; assay: cell-based or functional assay; remark: listed apart in the source
human TNFR2 [9] = biological target: T5, human TNFR2 (human, UniProt P20333 23-461); assay: binding to human TNFR2 CHO cells, IgG format; IgG format, light chain Q89L, Y91K
T5 construct: expressed on the surface of CHO cells; also called HuTNFR2; TNFRSF1B
T5 sequence: T2 sequence

human TNFR2 [10] = biological target: T5, human TNFR2; assay: binding to human TNFR2 CHO cells, IgG format; IgG format, light chain Q89L
human TNFR2 [11] = biological target: T2, human TNFR2; assay: binding to CHO cells over-expressing human TNFR2
biotinylated cyno TNFR2 [12] = biological target: T3, biotinylated cyno TNFR2; assay: SPR (BIAcore), biotinylated TNFR2 captured on streptavidin chip, TetraFab as analyte (apparent affinity)
Procedure: as §1

biotinylated human TNFR2 [13] = biological target: T4, biotinylated human TNFR2; assay: as above
Procedure: as §1

cynomolgus monkey TNFR2 [14] = biological target: T1, cynomolgus monkey TNFR2; assay: cell-based or functional assay
human TNFR2 [15] = biological target: T2, human TNFR2; assay: cell-based or functional assay; remark: listed apart in the source
cynomolgus monkey TNFR2 [16] = biological target: T1, cynomolgus monkey TNFR2; assay: cell-based or functional assay
human TNFR2 [17] = biological target: T2, human TNFR2; assay: cell-based or functional assay; remark: listed apart in the source
biotinylated human TNFR2 [18] = biological target: T4, biotinylated human TNFR2; assay: SPR (BIAcore), apparent affinity
Procedure: as §1

cynomolgus monkey TNFR2 [19] = biological target: T1, cynomolgus monkey TNFR2; assay: cell-based or functional assay
human TNFR2 [20] = biological target: T2, human TNFR2; assay: cell-based or functional assay; remark: listed apart in the source

B1: GBT-TNFR2-1765 (antibody, human IgG2, kappa, V domains shown)
VH: QVQLVQSGAEVKKPGASVKVSCKVSGFSFPSSGVDWVRQAPGQGLEWLGVTWGVGSTHYNQKFQGRVTITKDTSKSTVYMELSSLRSEDTAVYYCASGEWDEGFVYWGQGTLVTVSS
VL: DIQLTQSPSFLSASVGDRVTITCKASQNVGTAVAWYQQKPGKAPKLLIYAASTLQSGVPSRFSGSGSGTEFTLTISSLQPEDFATYYCQQYSSYPLTFGGGTKVEIKR
Cynomolgus monkey TNFR2 [1]
  EC50 CyPBMC (CD25+/Ki67+ of CD4+ cells): 13.6 µg/mL
Human TNFR2 [2]
  EC50 HuPBMC (ICAM-1 up-regulation): 1.31 µg/mL
Human TNFR2 [3]
  EC50: 1.21 nM
Human TNFR2 [4]
  EC50 Jurkat: 1.01 µg/mL
Biotinylated cyno TNFR2 [5]
  Kd: 2.39 nM
  koff: 0.00977 s⁻¹
  kon: 4.09e+06 M⁻¹ s⁻¹
Biotinylated human TNFR2 [6]
  Kd: 0.32 nM
  koff: 0.00136 s⁻¹
  kon: 4.2e+06 M⁻¹ s⁻¹
Cynomolgus monkey TNFR2 [7]
  EC50 (CyPBMC): 13.6 nM
Human TNFR2 [8]
  EC50 (HuPBMC): 1.31 nM
  Jurkat EC50: 1.01 µg/mL

B2: IgG 2204 (antibody, V domains shown)
VH: B1 VH
VL: B1 VL with Q89L, Y91K
notes: IgG
Human TNFR2 [9]
  EC50: 1.63 nM

B3: IgG2205 (antibody, V domains shown)
VH: B1 VH
VL: B1 VL with Q89L
notes: IgG
Human TNFR2 [10]
  EC50: 0.43 nM

B4: clone 825 (antibody, V domains shown)
VH: QVQLKESGPGLVAPSQSLSITCTVSGFSFPSSGVDWVRQSPGKGLEWLGVTWGVGSTHYNSALKSRLSISKDNSKSQVFLKMNSLQTEDTAIYYCASGEWDEGFVYWGQGTLVTVSA
VL: DIVMTQSQKFMSTTVGDRVSITCKASQNVGTAVAWYQQKPGQSPKLLIYSASNRYTGVPDRFTGSGSGTDFTLTISNMQSEDLADYFCQQYSSYPLTFGGGTKLEIK
notes: human IgG1 (L234A, L235A, G237A, EU), kappa
Human TNFR2 [11]
  EC50: 0.0698 µg/mL

B5: TetraFab 2053 (antibody, human IgG1, kappa)
heavy: QVQLVQSGAEVKKPGASVKVSCKVSGFSFPSSGVDWVRQAPGQGLEWLGVTWGVGSTHYNQKFQGRVTITKDTSKSTVYMELSSLRSEDTAVYYCASGEWDEGFVYWGQGTLVTVSSASTKGPSVFPLAPSSKSTSGGTAALGCLVKDYFPEPVTVSWNSGALTSGVHTFPAVLQSSGLYSLSSVVTVPSSSLGTQTYICNVNHKPSNTKVDKKVEPKSCGGGGSQVQLVQSGAEVKKPGASVKVSCKVSGFSFPSSGVDWVRQAPGQGLEWLGVTWGVGSTHYNQKFQGRVTITKDTSKSTVYMELSSLRSEDTAVYYCASGEWDEGFVYWGQGTLVTVSSASTKGPSVFPLAPSSKSTSGGTAALGCLVKDYFPEPVTVSWNSGALTSGVHTFPAVLQSSGLYSLSSVVTVPSSSLGTQTYICNVNHKPSNTKVDKKVEPKSCDKTHTCPPCPAPEAAGAPSVFLFPPKPKDTLMISRTPEVTCVVVDVSHEDPEVKFNWYVDGVEVHNAKTKPREEQYNSTYRVVSVLTVLHQDWLNGKEYKCKVSNKALPAPIEKTISKAKGQPREPQVYTLPPSREEMTKNQVSLTCLVKGFYPSDIAVEWESNGQPENNYKTTPPVLDSDGSFFLYSKLTVDKSRWQQGNVFSCSVMHEALHNHYTQKSLSLSPGK
light: DIQLTQSPSFLSASVGDRVTITCKASQNVGTAVAWYQQKPGKAPKLLIYAASTLQSGVPSRFSGSGSGTEFTLTISSLQPEDFATYYCQQYSSYPLTFGGGTKVEIKRTVAAPSVFIFPPSDEQLKSGVTASVVCLLNNFYPREAKVQWKVDNALQSGNSQESVTEQDSKDSTYSLSSTLTLSKADYEKHKVYACEVTHQGLSSPVTKSFNRGEC
notes: also called TF2053
Biotinylated cyno TNFR2 [12]
  Kd: 0.61 nM
  koff: 0.00706 s⁻¹
  kon: 1.15e+07 M⁻¹ s⁻¹
Biotinylated human TNFR2 [13]
  Kd: 0.06 nM
  koff: 0.000473 s⁻¹
  kon: 8.1e+06 M⁻¹ s⁻¹
Cynomolgus monkey TNFR2 [1]
  EC50 CyPBMC (CD25+/Ki67+ of CD4+ cells): 5.95 µg/mL
Human TNFR2 [2]
  EC50 HuPBMC (ICAM-1 up-regulation): 0.116 µg/mL
Cynomolgus monkey TNFR2 [14]
  loss of potency in cyno versus human, IKBa degradation: > 5 fold
  mean EC50 for IKBa in cyno expanded Tregs: 0.145 nM
  mean EC50 for upregulation of OX-40 in cyno splenic Treg: 0.958 nM
Human TNFR2 [15]
  fold improvement of EC50 for up-regulation of ICAM-1 against 854 and 1765: 10 fold
  fold improvement of Jurkat EC50 compared to both 854 and 1765: > 10 fold
  mean EC50 for IKBa in human expanded Tregs: 0.026 nM
  mean EC50 for OX-40 upregulation on human splenic Treg: 0.033 nM
Cynomolgus monkey TNFR2 [16]
  Cyno EC50, IKBa degradation in expanded Tregs, donor Cyno3: 2.25 nM
  Cyno EC50, IKBa degradation in expanded Tregs, donor Cyno 16-477: 0.118 nM
  Cyno EC50, IKBa degradation in expanded Tregs, donor Cyno 16-873: 0.0538 nM
  Cyno EC50, IKBa degradation in expanded Tregs, donor Cyno 18-7469: 0.4 nM
  Cyno EC50, IKBa degradation in expanded Tregs, donor Cyno 18-7473: 0.155 nM
Human TNFR2 [17]
  Human EC50, IKBa degradation in expanded Tregs, donor Human D23: 0.0478 nM
  Human EC50, IKBa degradation in expanded Tregs, donor Human D24: 0.00575 nM
  Human EC50, IKBa degradation in expanded Tregs, donor Human D28: 0.02 nM and 0.0179 nM
  Human EC50, IKBa degradation in expanded Tregs, donor Human D32: 0.0373 nM
Human TNFR2 [4]
  EC50 Jurkat: 0.037 µg/mL
Biotinylated human TNFR2 [18]
  fold improvement of KD compared to its IgG counterparts 854 or 1765: 5 fold
Cynomolgus monkey TNFR2 [19]
  Cyno EC50, OX-40 up-regulation on splenic Treg, donor 17-5215: 1.75 nM
  Cyno EC50, OX-40 up-regulation on splenic Treg, donor #31: 0.799 nM
  Cyno EC50, OX-40 up-regulation on splenic Treg, donor #34: 0.905 nM
  Cyno EC50, OX-40 up-regulation on splenic Treg, donor TA1: 0.642 nM
  Cyno EC50, OX-40 up-regulation on splenic Treg, donor TA2: 0.692 nM
Human TNFR2 [20]
  Human EC50, OX-40 up-regulation on splenic Treg, donor BioIVT #BRH1515663: 0.018 nM
  Human EC50, OX-40 up-regulation on splenic Treg, donor ZenBio #072518: 0.047 nM
